The results in this text go back to patent publication US10172850B2, “Substituted diketopiperazine analogs for use as drug delivery agents” (MannKind Corporation, priority 2008, dated 2019).

For series [1] the following is noted: rat, in vivo.
Description: (§4) Blood samples were taken on the day of dosing for each rat per group at pre-dose (0 minutes), 5, 20, 40, 60, and 120 minutes post dose. […] Body weights ranged from 214-250 grams.
Series [2] is described as follows: Mean serum insulin levels and relative bioavailability of substituted DKP/insulin powders (Example 6, FIG. 10, Table 2). The source says:
(§1) For this study, substituted diketopiperazine/insulin powders were made each containing either (E)-3-(4-(3,6-dioxopiperazin-2-yl)butylcarbamoyl)-acrylic acid (Compound 3) and insulin; or (E)-3-(3-(3,6-dioxopiperazin-2-yl)propylcarbamoyl)-acrylic acid (Compound 4) and insulin; or (E)-3-(4-(5-isopropyl-(3,6-dioxopiperazin-2-yl)butylcarbamoyl)-acrylic acid (Compound 5) and insulin, and administered to each of 3 female Sprague Dawley rats per group via pulmonary insufflation.
(§2) The rats were divided into 5 groups as follows. Group 1 rats received a formulation containing Compound 3 with an 11.4% insulin content (Formulation 3) via pulmonary insufflation. Group 2 rats were administered a formulation Compound 3 with a 25% insulin content (Formulation 3) by pulmonary insufflation. Group 3 rats received a formulation of Compound 4 with an 11.4% insulin content (Formulation 4) by pulmonary insufflation. Group 4 rats received a formulation of Compound 5 with 11.4% insulin content by pulmonary insufflation. Group 5 rats received insulin (0.5 U/kg) via subcutaneous administration.
(§3) Blood samples were taken on the day of dosing for each rat per group before (0 minutes) and 10, 20, 40, and 60 minutes after administration of the formulations, except for the insulin control group (group 5), for which an additional sample was collected at 120 minutes after dosing. At each time point, approximately 10 μL of whole blood was collected from the lateral tail vein of rats in each group and analyzed for measurements of insulin and glucose concentrations.

Series [3] in a line: Mean serum insulin concentrations in rats administered DKP and insulin powders (Example 5, FIG. 8). Particulars: 20 minutes post dose; 1.4 mg insulin in saline; pulmonary liquid instillation (INS).
Description: as §4
A short description of series [4]: Mean glucose levels in rats administered various substituted DKP/insulin powders (Example 6, FIG. 9). It counts as in vivo, female Sprague Dawley rats. Particulars: insulin 0.5 U/kg subcutaneous, pre-dose 132 mg/dL.
Description: as §1, §2, §3

Setting [5] is: serum insulin, insulin 0.5 U/kg subcutaneous.

Compound `O=C(O)/C=C/C(=O)NCCCC1NC(=O)C(CCCNC(=O)/C=C/C(=O)O)NC1=O` (stereo not drawn) [Compound 2, (E)-3,6-bis[(N-carboxy-2-propenyl)-amidopropyl]-2,5-diketopiperazine] registered an insulin concentration in series [1] of 505 μU/mL.

In the case of insulin, the serum insulin concentration in series [2] (20 minutes post dose, insulin by subcutaneous injection) is 9360 μU/mL; in series [3], 6703 μU/mL. Further, the BIOAVAILABILITY in series [2] (insulin 0.5 U/kg subcutaneous (reference)) stood at 100%. Further, in series [2] (setting [5]), the Tmax came out at 20 min. Further, in series [2] (setting [5]), the T½ was 9.18 min. The blood glucose level in series [4] (40 minutes post dose) worked out at 43 mg/dL; in series [4] (1 hour post dose), 42 mg/dL; in series [4] (2 hours post dose), 34 mg/dL.
